# In US20260210971A1 (Pfizer, published 2026):
# “And” between values parts separate entries of the source, which are not always exact repeats. Identical values can stand only once.
# T1: human TNFSF6 (FAS Ligand) (human, UniProt P48023 134-281, limits assumed)
# T1 sequence (looked up): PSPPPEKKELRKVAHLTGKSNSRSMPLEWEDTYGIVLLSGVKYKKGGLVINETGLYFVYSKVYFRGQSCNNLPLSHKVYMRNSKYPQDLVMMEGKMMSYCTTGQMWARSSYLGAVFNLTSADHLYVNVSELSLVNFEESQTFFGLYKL
# T2: recombinant soluble murine TL1A (mouse, UniProt Q5UBV8 75-252)
# T2 construct: also called murine rsTL1A; mouse TL1A
# T2 chain: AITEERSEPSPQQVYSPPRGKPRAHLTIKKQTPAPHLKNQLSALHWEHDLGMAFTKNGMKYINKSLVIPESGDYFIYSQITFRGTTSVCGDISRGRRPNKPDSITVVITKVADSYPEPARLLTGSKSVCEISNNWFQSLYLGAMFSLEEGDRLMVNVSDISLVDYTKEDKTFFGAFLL
# T3: recombinant soluble human TL1A (human, UniProt O95150 71-251)
# T3 construct: Homotrimer, expressed in HEK293 and purified over HitrapNTA; no tag is described; Used biotinylated in the HTRF assay and in flow cytometry; also called rsTL1A; hTL1A
# T3 sequence: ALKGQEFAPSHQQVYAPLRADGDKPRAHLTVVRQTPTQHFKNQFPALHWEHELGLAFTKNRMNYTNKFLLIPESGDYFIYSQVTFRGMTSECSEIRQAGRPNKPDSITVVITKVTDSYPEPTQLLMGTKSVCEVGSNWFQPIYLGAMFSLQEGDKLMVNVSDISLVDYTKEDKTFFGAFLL
# T4: endogenous TL1A of stimulated cynomolgus monkey peripheral blood (cynomolgus monkey, UniProt G7PRK8 72-251)
# T4 construct: also called sTL1A (cynomolgus)
# T4 sequence: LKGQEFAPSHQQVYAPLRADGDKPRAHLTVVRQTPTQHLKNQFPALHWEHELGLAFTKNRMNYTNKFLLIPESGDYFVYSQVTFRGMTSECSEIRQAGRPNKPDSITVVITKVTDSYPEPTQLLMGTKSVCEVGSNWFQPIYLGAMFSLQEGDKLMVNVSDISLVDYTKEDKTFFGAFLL
# T5: endogenous TL1A of stimulated human peripheral blood (human, UniProt O95150 72-251, limits assumed)
# T5 sequence (looked up): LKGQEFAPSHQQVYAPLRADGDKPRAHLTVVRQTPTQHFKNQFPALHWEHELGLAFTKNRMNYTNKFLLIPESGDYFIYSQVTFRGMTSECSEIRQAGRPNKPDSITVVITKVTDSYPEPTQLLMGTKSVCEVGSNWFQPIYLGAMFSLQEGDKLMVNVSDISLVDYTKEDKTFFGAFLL
# T6: recombinant soluble cynomolgus monkey TL1A (cynomolgus monkey, UniProt O95150 72-251 (human entry))
# T6 construct: also called cyno rsTL1A; cyno TL1A
# T6 chain: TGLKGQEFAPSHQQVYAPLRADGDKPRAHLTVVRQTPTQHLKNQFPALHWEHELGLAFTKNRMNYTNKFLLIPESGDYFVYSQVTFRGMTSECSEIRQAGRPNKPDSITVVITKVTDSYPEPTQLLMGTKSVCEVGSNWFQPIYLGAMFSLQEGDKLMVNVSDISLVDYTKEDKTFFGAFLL
# T7: recombinant soluble rat TL1A (rat, UniProt Q8K3Y7 76-252)
# T7 construct: also called rat rsTL1A
# T7 sequence: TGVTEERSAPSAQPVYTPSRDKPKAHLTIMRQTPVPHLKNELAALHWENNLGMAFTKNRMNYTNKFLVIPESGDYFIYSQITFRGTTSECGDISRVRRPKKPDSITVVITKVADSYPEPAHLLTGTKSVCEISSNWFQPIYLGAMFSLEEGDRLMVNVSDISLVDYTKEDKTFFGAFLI
# Tests used:
# [1] = molecular target: T1, human TNFSF6 (FAS Ligand); test: plate ELISA, TNFSF6 coated at 1 µg/mL, detection with anti-human IgG HRP
# Experimental: (§1) The first 6 rows of each plate were coated with the test article cytokine, and the last two rows were coated with TL1A as a positive control. Rows 1 and 2 were duplicate rows where the test article cytokine was tested for binding to increasing concentrations of its corresponding anti-cytokine positive control antibody. […] The experiment for each cytokine was repeated three times.
# (§2) Plates were incubated overnight at 4° C. After washing the plates three times (3×) with 300 μL PBST using a plate washer (model ELx405; BioTek), plates were blocked by incubating for 1 hour at room temperature with 300 μL of blocking buffer (PBST+0.5% BSA) in each well. […] Plates were then washed 5 times with PBST using the plate washer.
# [2] = molecular target: T2, recombinant soluble murine TL1A; test: SPR, IgG captured on anti-hIgG, TL1A injected;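 note: biacore measurement on a carboxymethylated dextran chip, double-referenced against a control surface and buffer, rates fitted to a one-to-one binding model, KD from koff over kon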
# Text: (§3) The antibodies were captured via directly immobilized anti-human IgG (GE Healthcare) onto a carboxymethylated dextran sensor chip surface (CM5) using a Biacore T100 or T200 instrument. Anti-human IgG was immobilized through amine coupling to densities of approximately 4,000-13,000 response units (RU). […] At the end of each cycle, the entire anti-hIgG surface was regenerated by a 30-second pulse of 3M MgCl₂ followed by two consecutive 15-second pulses of PBS-NET. […] All injections were performed at 25° C. at a collection rate of 10 Hz. All sensorgrams were double referenced by using both a control surface and buffer injections. Rate constants were determined by fitting the data to a 1:1 model in Biacore T100, T200 evaluation software v1.0, or BIAevaluation software v4.1.1 and the equation KD=Kd/kₐ.
# (§4) At the highest cytokine concentrations, the dissociation phase was sometimes extended to 60 minutes to achieve at least a 5% decrease in binding signal.
# [3] = molecular target: T3, recombinant soluble human TL1A; test: plate ELISA, TL1A coated at 1 µg/mL, detection with anti-human IgG HRP
# Experimental: as §1, §2
# [4] = molecular target: T3, recombinant soluble human TL1A; test: plate ELISA, TL1A coated, antibody titrated; plate of Lymβ 1
# Experimental: as §1, §2
# [5] = molecular target: T4, endogenous TL1A of stimulated …; test: MSD ligand-binding assay of 1D1 1.31-free sTL1A in plasma of stimulated cynomolgus blood; lower end over the monkeys; lower end of range over 6 monkeys
# Experimental: (§5) Cynomolgus monkey peripheral blood treated with 1 ng/ml recombinant human IL-12 and 10 ng/ml recombinant human IL-18 was stimulated by immune complex coated plates for 24 hours at 37° C. […] Plasma was prepared from these samples and IFNγ was measured in the plasma samples by a quantitative immune-ligand binding assay using a Mesoscale (MSD) kit. […] Cynomolgus monkey peripheral blood treated with 1 ng/ml recombinant human IL-12 and 10 ng/ml recombinant human IL-18 was stimulated by immune complex coated plates for 24 hours at 37° C.
# (§6) For IC and IL-12 and IL-18 stimulation, cynomolgus monkey blood was collected in sodium heparin coated tubes and used within one hour after the blood draw. Human IL-12 (1 ng/mL final concentration) and human IL-18 (10 ng/ml final concentration) were mixed in with blood prior to addition of 95 μL of the blood/IL-12/IL-18 mixture to each well of the IC coated plates.
# [6] = molecular target: T5, endogenous TL1A of stimulated human …; test: cell-based or functional assay
# [7] = molecular target: T4, endogenous TL1A of stimulated …; test: cell-based or functional assay
# [8] = molecular target: T3, recombinant soluble human TL1A; test: cell-based or functional assay
# [9] = molecular target: T6, recombinant soluble cynomolgus monkey …; test: KinExA, equilibrium in solution
# Experimental: (§7) This assay involves pre-incubating antibody: antigen mixtures in solution long enough to reach equilibrium before measuring the level of unbound antibody using a solid phase component. […] Beads were blocked for 1 hour with PBS plus 10 mg/ml bovine serum albumin (bovine serum albumin, Sigma) at room temperature before being diluted up to a total of 27 ml in PBS. […] For each titration series, a buffer sample and a sample of antibody alone were included. Each antibody: TL1A mixture was tumbled at room temperature for at least six hours to reach equilibrium and then each mixture was injected over the solid phase of TL1A-coated beads in the instrument flow cell. […] Beads were replenished between each sample. Binding signals of detected free antibody were converted to percentage of free, unbound antibody as measured by the antibody only sample and plotted versus each concentration of TL1A. For each antibody, the KD and ABC controlled curves were fit simultaneously using n-Curve Analysis software v3.1.4 to fit the curves to the ‘affinity, unknown ligand’ model and measure an equilibrium KD.
# (§8) Solution-based kinetic exclusion assays (KinExA) were carried out as an orthogonal technique to measure equilibrium KD values.
# [10] = molecular target: T2, recombinant soluble murine TL1A; test: KinExA, equilibrium in solution
# Experimental: as §7, §8
# [11] = molecular target: T3, recombinant soluble human TL1A; test: KinExA, equilibrium in solution
# Experimental: as §7, §8
# [12] = molecular target: T3, recombinant soluble human TL1A; test: plate ELISA, TL1A coated, antibody titrated; plate of TNFSF10
# Experimental: as §1, §2
# [13] = molecular target: T7, recombinant soluble rat TL1A; test: SPR, IgG captured on anti-hIgG, TL1A injected
# Text: as §3, §4
# [14] = molecular target: T4, endogenous TL1A of stimulated …; test: MSD ligand-binding assay of 1D1 1.31-free sTL1A in plasma of stimulated cynomolgus blood; mean of n=6 monkeys
# Experimental: as §5, §6
# [15] = molecular target: T4, endogenous TL1A of stimulated …; test: MSD ligand-binding assay of 1D1 1.31-free soluble TL1A in plasma of cynomolgus whole blood stimulated 24 h with immune complex + IL-12/IL-18 (representative experiment)
# Experimental: Controls included stimulation without antibody as well as no, or single stimulation controls (only IC or only IL-12/IL-18) in triplicate. After 24 hours of culture at 37° C., 200 μL of 5% bovine serum albumin in PBS were added and mixed well with the 100 μL of blood cultures to dilute plasma (dilution factor: 3). […] IFNγ was measured using the MSD human IFNγ kit (Catalog No. K151AEB-1) following the manufacturer's instructions. […] The following day, plates were washed three times with 150 μL per well of 0.1% Tween 20 in PBS, followed with 150 μL per well of blocking solution (5% bovine serum albumin in PBS), then the plates were incubated at room temperature for 1 hour with orbital shaking (1500 rpm). […] Plates were incubated at room temperature for 2 hours with orbital shaking (1500 rpm) followed by the same plate wash protocol mentioned above. TL1A standard curves were generated using recombinant cynomolgus monkey soluble TL1A. Plates were read following the manufacturer's procedure, standard curve and plasma concentration of the cytokine were calculated using the MSD software per manufacturer's instructions.
# [16] = molecular target: T3, recombinant soluble human TL1A; test: plate ELISA, TL1A coated, antibody titrated
# [17] = molecular target: T4, endogenous TL1A of stimulated …; test: MSD ligand-binding assay of 1D1 1.31-free sTL1A in plasma of stimulated cynomolgus blood; upper end over the monkeys; upper end of range over 6 monkeys
# Experimental: as §5, §6
binder,measurement,setting,value
"1D1 1.31 (antibody, human IgG1, kappa, V domains shown, Full length human IgG1 with effector function-null mutations in the Fc, produced in CHO cells; Used biotinylated for staining of monocytes) VH: QVQLVQSGAEVKKPGASVKVSCKASGYDFTYYGISWVRQAPGQGLEWMGWISTYNGNTHYARMLQGRVTMTTDTSTRTAYMELRSLRSDDTAVYYCARENYYGSGAYRGGMDVWGQGTTVTVSS VL: EIVLTQSPATLSLSPGERATLSCRASQSVSSYLAWYQQKPGQAPRLLIYDASNRATGIPARFSGSGSGTDFTLTISSLEPEDFAVYYCQQRSNWPWTFGQGTKVEIKR",binding result,[1],no binding (tested: 25 µg/ml)
same,Kd,[2],1.06 nM
same,koff,[2],0.00027 s⁻¹
same,kon,[2],270000 M⁻¹ s⁻¹
same,t1/2,[2],42.1 min
same,EC50 (read off the curve),[3],~8 ng/mL
same,EC50,[4],0.0063 ng/mL
same,IC50,[5],0.000114 nM
same,"inhibition of IFNγ secretion in stimulated human whole blood, IC50",[6],0.277 nM
same,"inhibition of IFNγ secretion in stimulated cynomolgus whole blood, IC50",[7],0.036 nM
same,"inhibition of NFκB activation by 150 pM TL1A in TF-1-NFκB-luciferase cells, IC50",[8],95 pM
same,"inhibition of caspase activation by 87 pM TL1A in TF-1 cells, IC50",[8],69 pM
same,Kd,[9],0.0035 nM
same,Kd,[10],0.0953 nM
same,Kd,[11],0.00138 nM and 0.0036 nM
same,EC50,[12],0.008 ng/mL
same,Kd,[13],4.86 nM
same,koff,[13],0.0026 s⁻¹
same,kon,[13],540000 M⁻¹ s⁻¹
same,t1/2,[13],4.38 min
same,IC50,[14],0.022 nM
same,IC50,[15],0.000169 nM
same,EC50,[16],8400 ng/mL
same,IC50,[17],0.09 nM
